This note sets out measurements from paper PMC4372372.

The target of this assay is rPmMasSPH1 (His-tagged recombinant C-terminal SP-like domain of PmMasSPH1) (Penaeus monodon).

For the substance “rPmPPAE2 (His-tagged recombinant SP domain of PmPPAE2) (domain or fragment)”, the PGN-triggered PO activity of shrimp hemolymph in vitro (L-DOPA, change of A490 at 5 min), with 0.25 ug PGN and 1 uM of each recombinant protein, relative to hemolymph alone stood at 102%.
